Measured values reported in the supplement of paper PMC10724198.

Columns and labels:
Saccharomyces cerevisiae [1] = experiment: protein stability index of tFT-peptide fusion in wild type (PSI (0-1 scale)); higher = more stable (slower turnover); details: genetic background: wild type
Procedure: (§1)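 MPS profiling in S. cerevisiae of two library types built from selected 12-aa C-degron peptides (IN1, IN2, LN1, LN3, VN2, R1-R5, W1-W3, Atg1 and Rpa12 C-termini): saturation mutagenesis libraries and C-terminal +1 capping libraries (13 aa). Each peptide is fused to the C-terminus of a sfGFP-mCherry timer, after a GGGS linker. Cells are FACS-sorted into 8 mCherry/sfGFP bins and sequenced. PSI runs from 0 (unstable) to 1 (stable), measured once in wild type and in the das1Δ or doa10Δ background.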

Saccharomyces cerevisiae [2] = experiment: protein stability index of tFT-peptide fusion in deletion strain of DAS1 (PSI (0-1 scale)); higher = more stable (slower turnover)
Procedure: as §1
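Wherever protein stability index of tFT-peptide fusion in deletion strain of DAS1 is given: PSI is a weighted mean of each variant's read distribution over the sorted stability bins, computed only for variants having over 10 reads in total.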
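Wherever protein stability index of tFT-peptide fusion in wild type is given: PSI derived as read-weighted mean over the 8 sorting bins, only variants exceeding 10 total reads kept, mCherry placed adjacent to the peptide and sfGFP distal.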

Sequence	protein stability index (Saccharomyces cerevisiae [1])	protein stability index (Saccharomyces cerevisiae [2])
LKYLRQKMNHQN	0.17	0.629
CTSCGYKFRTEN	0.45	0.725
VRGAVYGWRLVG	0.141	0.666
RLQQPLPVQFLN	0.0653	0.574
ARWRVWLWRGAS	0.341	0.711
LCILRQKMNHQN	0.115	0.655
KKVKKGQKQKIN	0.122	0.631
VRGAVGGHRLVG	0.675	0.703
RLIQPLPVQALN	0.36	0.569
CTSCGYKFRTNNF	0.711	0.712
LVVYLSCVACCN	0.0106	0.0342
LKILRMKMNHQN	0.243	0.71
KKHPKGQKQKIN	0.14	0.684
ARGAVGGWRLVG	0.172	0.653
KTHKKGQKQKIN	0.0924	0.684
ARWRVALWRGAS	0.254	0.671
LYILRQKMNHQN	0.135	0.666
VRGARGGWRLVG	0.273	0.686
RLIQPSPVQFLN	0.0855	0.683
WKILRQKMNHQN	0.244	0.678
LVVYLSCVACMN	0.0204	0.0497
KKHKKGQKQKMN	0.0838	0.533
PSLACSFWRVVG	0.139	0.675
VRGAVGGWRLVGT	0.678	0.689

Sequence	protein stability index (Saccharomyces cerevisiae [1])	protein stability index (Saccharomyces cerevisiae [2])
FSMRWTFRWWVN	0.0591	0.462
CTACGYKFRTNN	0.259	0.676
LKCLRQKMNHQN	0.205	0.682
ARWVVGLWRGAS	0.39	0.694
ARWRVGLWRGAA	0.17	0.675
KKHKKGQKQKKN	0.577	0.843
PSLAASFWREVG	0.258	0.705
CTSCGYKFNTNN	0.42	0.722
PSLAASFWRVVGT	0.674	0.698
FSMRWTFRRWVN	0.11	0.623
PYLAASFWRVVG	0.151	0.699
PDKRNVLIKLLN	0.125	0.589
VRGRVGGWRLVG	0.121	0.675
LKILRHKMNHQN	0.194	0.693
PDKRNHLIKLQN	0.453	0.737
RCIQPLPVQFLN	0.0766	0.572
FSMRWTFRYWVR	0.416	0.446
VRGAVGGWRLAG	0.233	0.695
PDLRNHLIKLLN	0.13	0.614
ARWRVGLGRGAS	0.456	0.679
LVVYLSCVACHN	0.0435	0.0392
VRGAVGYWRLVG	0.152	0.668
LVVYLSHVACIN	0.148	0.411
CTSCGYKRRTNN	0.477	0.683

Sequence	protein stability index (Saccharomyces cerevisiae [1])	protein stability index (Saccharomyces cerevisiae [2])
CTSCGYKLRTNN	0.471	0.678
RLIQPLPVQDLN	0.6	0.576
PDKRSHLIKLLN	0.0872	0.631
RLIQPLPVQFNN	0.554	0.6
VRGAVGGWRLVR	0.651	0.682
KKSKKGQKQKIN	0.0679	0.576
PSLAASFWRVPG	0.677	0.689
KKHKKGQKPKIN	0.574	0.626
KKHKKGQKQKDN	0.607	0.638
PDKRNHLIKLPN	0.592	0.587
PDKRNHLIKLVN	0.158	0.645
VRGAVGGWRLYG	0.239	0.686
LVVYLSCVACINH	0.0236	0.0365
PSLRASFWRVVG	0.141	0.688
PVLAASFWRVVG	0.161	0.68
PSLAASFWLVVG	0.38	0.611
CTSCGGKFRTNN	0.61	0.675
ARWIVGLWRGAS	0.398	0.684
RLIQPLGVQFLN	0.0859	0.66
CTSRGYKFRTNN	0.215	0.685
ARWRVGLWRGASR	0.663	0.676
LKILRQKMNHQD	0.622	0.667
LVVYLSCVFCIN	0.0477	0.167
RLIQPLPVQFFN	0.0467	0.563

Sequence	protein stability index (Saccharomyces cerevisiae [1])	protein stability index (Saccharomyces cerevisiae [2])
VRGAVFGWRLVG	0.149	0.678
LVVKLSCVACIN	0.0127	0.0586
LKILVQKMNHQN	0.218	0.662
ARWRVGLWRGASH	0.66	0.685
LVVYLSCVDCIN	0.402	0.417
KKILRQKMNHQN	0.159	0.688
PDKRNHLIALLN	0.216	0.634
LVVYRSCVACIN	0.133	0.333
FSMRNTFRYWVN	0.0817	0.578
ARWRVGLWFGAS	0.626	0.666
RLIQPLPVQFLNR	0.659	0.669
AGWRVGLWRGAS	0.424	0.722
CTSCGYKFRRNN	0.49	0.703
PTLAASFWRVVG	0.162	0.703
LVVYLSCVACINV	0.02	0.0328
PDKRNHLIKLLI	0.206	0.594
PDKRNHLQKLLN	0.168	0.582
ARWRVGLWRGAI	0.529	0.685
FSMRWTRRYWVN	0.101	0.585
ALIQPLPVQFLN	0.101	0.649
ARWRVCLWRGAS	0.397	0.705
FRMRWTFRYWVN	0.0353	0.584
PSLAASFHRVVG	0.687	0.649
VRGACGGWRLVG	0.143	0.677

Sequence	protein stability index (Saccharomyces cerevisiae [1])	protein stability index (Saccharomyces cerevisiae [2])
VRGAVGGWLLVG	0.156	0.668
CTDCGYKFRTNN	0.254	0.662
VRGAVNGWRLVG	0.157	0.694
LVVYLSCVACNN	0.127	0.16
LVGYLSCVACIN	0.0848	0.342
VRGAVEGWRLVG	0.19	0.692
LDILRQKMNHQN	0.121	0.707
PDKRNHLIKRLN	0.104	0.602
KKHSKGQKQKIN	0.0645	0.576
PDKRAHLIKLLN	0.112	0.617
RLIQPLPVSFLN	0.262	0.593
LWVYLSCVACIN	0.0149	0.0209
ARWRIGLWRGAS	0.327	0.671
PSLAYSFWRVVG	0.134	0.693
ACWRVGLWRGAS	0.445	0.694
KQHKKGQKQKIN	0.104	0.621
ALWRVGLWRGAS	0.464	0.707
CTSCGYKFRFNN	0.303	0.699
CTSCGYKFRTYN	0.31	0.696
RLIQPLPVQVLN	0.204	0.46
LKILGQKMNHQN	0.365	0.678
